Experimental findings from the nanobody polyreactivity screen of Harvey et al. (2022) are described below.

This data set can be described thus: yeast display, Sf9 membrane polyspecificity reagent, FACS + sequencing; frameworks hold sequencing errors. In short, it runs like this: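 Using colony PCR, genes from sorted yeast display clones were amplified, then sequenced on MiSeq at 2 × 250 and filtered by CDR length. The clones had been stained with 10% biotinylated, detergent-solubilized Sf9 membrane reagent for 1 hour at 4 °C and sorted by FACS into low and high (top ~1%) gates on anti-HA and streptavidin fluorescence. Polyreactivity labels come from the gate of origin.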
For “QVQLVESGGCLVQAVGSLRLSCAASAFTFTQYGRGWYRQASGKEREFVATIRFSGDTTYYADSVKRRFTITRDHAKNTAYLQMNRLKPEDPAVYYCNADNRAFFVYPGSNRYDSWGQGTQVTVSS”, the “polyreactivity (PSR sort gate)” value is listed as “low polyreactivity”.
Next, “QVQLVESGGCLVQEGGSLRLSCAASGFTFRWYTMGWYRQAPGKERELVASIRYGGGSTYYADSVKGRFTISRDNAKNTVYLQMNSLKPEDTAVYYCAAYVRTYRGYYWKAFDYWGQGTQVTVSS”: “high polyreactivity”; “QVQLVESGGCLVQSGGSLRLSCAASGIIISSYAMGWYRQAPGKERELVADIRSGGSTNYADSVKGRFTISRDNAKNTVYLQMNSLKPEDTAVSDCNADTFQWWDSAAVYVIVKYGYWGHGTQVTVSS”: “low polyreactivity”.
Turning to “QVQLVESGGDLVQAGASLRLSCASSGRTFRHNALGRYRQAPGKERYLVATISNRGGTTYYADSVKGRFTISRDNAKNTVYLQMNSLKPEDTAVYYCAARVGVLGYVRYGYWGQGTQVTVSS”, the “polyreactivity (PSR sort gate)” value is “low polyreactivity”.
With “QVQLVESGGDLVQAGGSLRLSCAASGITFVYNAMGWYRQAPGKERELVAGITWSGSSTYYADSVKGRFTISRDNAKNTVYLQMNSLKPEDTAVYYCAAYLYDRTTRYTYYYWGQGTQVTVSS” the entry was “high polyreactivity”; with “QVQLVESGGDLVQAGGSLRLSCDASGRTCSANGMGSYRQSTGKERELVAAITRSGGITYYADSVKGRFTISRDNAKNTVYLQMNSLNPEDTADYYCAASVYSLSRRSWMDYWGQGTQVTVST”, “low polyreactivity”.
Consider “QVQLVESGGGEVQAGGSLRLICAASGRTFQLNAMGWYRQAPGKERELVAAISTRGGSTYYADSVKGRFTISRDNAKNTVYLQMISLKPEDTAVYYCAARVWTANYEMDLWGQGTQVTVSS”, for which the “polyreactivity (PSR sort gate)” value is given as “high polyreactivity”.
Next, “QVQLVESGGGFDQAGGSLRLSCAASGSIFFYYVMGWYRQAPGKERELVAVISSGGGSTYYADSVKGRFTISRDNAKNTVYLQMNSLKPEDTAVYYCAAGTYYKFYYWGQGTQVTVSS”: “high polyreactivity”; “QVQLVESGGGFFQAGGSLRLSCAASGSTFGYYTMGWYRQAPGKERELVAAISSGGSRTNYADSVKGRFTISRDNAKNTVYLQMNILKPEDTAVYYCARQSYGGTNRYYYWGQGTQVTVSS”: “high polyreactivity”; “QVQLVESGGGFVEAGGSLRLSCAASGSIFRSYAMGWYRQAPGKERELVAAISSGDSTNYADTVKRRFTISRDNAQNTGYLQMNSLKPEDTADYYCAADQVQYTGYTEYDWGQGTQVTVSS”: “low polyreactivity”.
Next, “QVQLVESGGGFVPAGGSLRLSCAASGSTFIPYAMGWYRQAPGKERELVAAISSGGRTYYADSVKGRFTISRDNAKNTVYLQMNSVKPEDTAGYYCASTTSPSSARYYYWGQGTQVTVSS”: “high polyreactivity”; “QVQLVESGGGFVQAGGSLLVSCAASGFTFRYSAMGWYRQAPGKERELVAAIDQNSGRTYYADSGKGRFTISRDNAKNTVYLQMNSLKPEDTAVYYCNVGYPKVPAGSYDYWGQGTQVTVSS”: “high polyreactivity”.
“QVQLVESGGGFVQAGGSLRLICADSGRIFGRYAMGWYRQAPGKERELVAVISARGARTYYADSVKGRFTLSRDNAKNTDYLQMNSLKPEATEVYYCAVDQYATDDYWGQGTQVTVSS”: the “polyreactivity (PSR sort gate)” value was “high polyreactivity”.
With “QVQLVESGGGFVQAGGSLRLSCAACGITFNPNAMGWYRQAPGKERELVAAITANGGNTYYADSVKGRFTISRDNAKNTVYLQMNSLKPEDTAVYYCARRTRRSAGYGEYYYWGQGTQVTVSS”, the “polyreactivity (PSR sort gate)” value is given as “high polyreactivity”.
Next, “QVQLVESGGGFVQAGGSLRLSCAASGFIFYQYAMGWYRQAPGKERELVAAISWGGGSTYYADSVKGRFTISRDNAKNTVYLQMNSLKQEDTAVYYCNTDSAPYYWLSDNYDSCGQGTQVTVSS”: “low polyreactivity”; “QVQLVESGGGFVQAGGSLRLSCAASGFTFFPYAMGWYRQAPGNEWELVAAISWSGGRTYYADSVKGRFTISRDNAKNTVYLHMNSLKPEDTAVYYCNARWRSGPRAYDYWGHGTQVTVSS”: “high polyreactivity”.
Next, “QVQLVESGGGFVQAGGSLRLSCAASGRIFAFYTMGWSRQAPGKEREFVAAISRSGGSTYYADSVKGRFTISRDNAKNTVYLQMNSLKPEDTAVYYCAKGGYSPKRVKYYDYWGQGTQVTVSS”: “low polyreactivity”; “QVQLVESGGGFVQAGGSLRLSCAASGRLFFIYAMGWYRQAPGKDRELVAAITGRGGRTYYADSVKGRFTISRDKPKNTVYLEMYSQKPEDTAVYYCAADSRDSYLFYYWGQGTQVTVST”: “high polyreactivity”.
With “QVQLVESGGGFVQAGGSLRLSCAASGRTFGHNDMGWYIQAPGKERELVATNSADGSTNYADSVKGRITISRDNEKKTVKLQMNSLKPEDTAVSYCAKDYQYVAYDYWGQGTQVTVSS” the entry was “low polyreactivity”; with “QVQLVESGGGFVQAGGSLRLSCAASGRTFIYNAMGWYRQAPGKERELVARISSGGGNTYYADSVKGRFTISRDNAKNPVYLQINSLKPEDTAVYYGAKGWRPSFSYYWGQGTQVTVSS”, “high polyreactivity”; with “QVQLVESGGGFVQAGGSLRLSCAASGSIFSVNTMGWYRQAPGKERELVATIRTGDSTNYADSVTGRFTISRDNAKNTVYLQMNSLKPEDTAVDYCAAEWSSLNFDYWGQGTQVTVSS”, “low polyreactivity”.
Regarding “QVQLVESGGGFVQAGGSLRLSCAASGSILRSYAMGWYRQAPGKERELVAVINGSGGRTYYADSVKGRFTISRDNAKNTVYLQMNSLKPEDTAVYYCNADPGGRYPRRGYAHEGDYWGQGTQVTVSS”, the “polyreactivity (PSR sort gate)” value is listed as “low polyreactivity”.
For “QVQLVESGGGFVQAGGSLRLSCAASGSTFSHYTMGWYSQAPGNERELLAAINYGGASTYYADSVKGRFTISRDNAKNTVYLQMNSQKPEDTAVYYCAAANRPSEQDNYWGQGTQVTVSS”, the “polyreactivity (PSR sort gate)” value is reported as “low polyreactivity”.
With “QVQLVESGGGFVQAGGSLRLSCAASGSTFYTYTLGWYRQAPGKERELVAAISSSGGDTYYADSVKGRFTISRDNAKNTVYLQMNSLKPEDTAVYYCAALGAFPSLEFDYWGQGTQVTVSS” the entry was “low polyreactivity”; with “QVQLVESGGGFVQAGGSLRLSCAATGSIFPQNAMGWYRQAPGKERELVASISSGGRTNYADSVKGRFTISRDYAKNTVYLQMNSLKPEDSAVYFCAKTRIRYKPLHFYYWGQGTQVTVSS”, “low polyreactivity”.
With “QVQLVESGGGFVQAGGSLRLSCASSGRIFYRNAMVWYRQAPGKESELVAAILGSGGRTYYADSVKGSFTISRDTAKNNVYLQMNSMKPEVTAVYYCAAYGYYVEHPRGLSGPYDDDYWGQGTQVTVSS” the entry was “low polyreactivity”; with “QVQLVESGGGFVQAGGSLRLSCASSGRTFRLYAMGWYRQAPGKERELVDVIRSGDSTNYADSVKGRFTISSDNAKNTVYLQMNSVKPEDTAVYYCAADVLYYYGKYDYWGQGTQVTVSS”, “high polyreactivity”; with “QVQLVESGGGFVQAGGSLRLSSAASGRTFYFYTMLWYRQAPGKERELVAAISWSGGSTYYADSVKGRFTISRDNAKNTVYLQMNSLKPEDTAVYYCAASSPWDQSNDQFYYWGQGTQVTVSS”, “low polyreactivity”.
For “QVQLVESGGGFVQAGGSLRLSSAASGSTFYRYAMGWYRQAPGKEREFVAAISRSGGSTYYADSVKRRFTLSRDNAKNTVYLQMNSLKPEDTAVEYCNKYYWYPYGRAQDYGYWGQGTQVTVSS”, the “polyreactivity (PSR sort gate)” value is given as “high polyreactivity”.
Next, “QVQLVESGGGIDQAGGSLRLSCAATGLTFWLNPMGWYRQAPWKERELVAAIRYSGGGTYADSVKGRFTISRDNAKNTVSLQMNSLKQEVTAVYYCAALYNLGYPQFDYWGQGNQVTVSS”: “low polyreactivity”; “QVQLVESGGGILQAGGSLRLSCAASGSTFSYYAMGWYRQAPGKERELVAAISYSGGRTYYADSVKGRFTISRDNAKNTVYLQMNSLKPEDTAVYYCAASGVFDSTRGVYYWGQGTQVTVSS”: “high polyreactivity”.
For the sequence “QVQLVESGGGIVQAGGRLRLSCAASGFTFGKYAMGWYRQAPGKERELVAAISRSGGSTYYADSVKGRFTISRDNAKFTVYLPMNSLKPVDTAVYYCAAYHPIQEYDYWGQGTQVTGSS”, the “polyreactivity (PSR sort gate)” value is “high polyreactivity”.
Consider “QVQLVESGGGIVQAGGRLRLSCAASGSTFPSKAMGWYRQAPGKERELVAAISRGGTTNYADSVKGRFTISRDNAKNTVYLQMNSLKPEDTAVYYCAKVYKLYWYKAYRRDYWGQGTQVTVSS”, for which the “polyreactivity (PSR sort gate)” value was “high polyreactivity”.
With “QVQLVESGGGIVQAGGSHRLSCAASGRTFRYNAMGWYRQAPGKERELVAAISGRGSSTYYADSVKGRFTISRDNAKNTVYLQMNSLKPEDTAVYYCAALPASVRRPGWHDYWGQGTQVTVSS” the entry was “high polyreactivity”; with “QVQLVESGGGIVQAGGSLLLSCAASGSISFLYTMGWYRQAPGKERELVAAITGSTASTYYADSVKGRFTISRDNAKNTVYLQMNSLKPEDTAVYYCAAYWYAEGYWVSRDYWGQGTQVTVSS”, “low polyreactivity”.
Next, “QVQLVESGGGIVQAGGSLLLSCPASGRIFGVYAMGWYRQAPGKERELVAGINGGDSTYYADSVKGRFTISRDNAKNTVYLQMNSLKPEDTAVYYCAAEADESGSNYDYWGQGSQVTVSS”: “low polyreactivity”.
With “QVQLVESGGGIVQAGGSLRISSAASGSIFGYYAMGWYIQEPGKERELVADITVRGGSTYYADSVKGRFTISRDNAKNTVYLQMNSLKPEDTAVYYCAAAQYTFWDGDSWGQGTQVTVSS”, the “polyreactivity (PSR sort gate)” value is “high polyreactivity”.
As to “QVQLVESGGGIVQAGGSLRLICAASGIIFPVYAMGWYRPAPGKERELVAAISRSGGSTYYADSVKGRFTISRDHAKNTVYLQMNSLKPEDTAVYYCAARYVVGYSLSSYGYWGQGTQVTVSS”, the “polyreactivity (PSR sort gate)” value is “high polyreactivity”.
With “QVQLVESGGGIVQAGGSLRLLCAASGRNIINYDMGWYRQAPGKERELVAAITWSTGSTYADSVNGRFTISRDNAKNTVYLQMNSLSPEDTAVYYCAAPWGQTDDRHQGGDYWGQGTQVTVSS” the entry was “low polyreactivity”; with “QVQLVESGGGIVQAGGSLRLSCAASGFIFKRYAMGWYRQAPGKERELVAAITTSGGRTYYADSVKGRFTISRDNAKNTVYLLMNSLKPEDTAVYYCNADYGTYWWPYYYWGQGTQVTVSS”, “high polyreactivity”.
Next, “QVQLVESGGGIVQAGGSLRLSCAASGFTFGLYAMGWYRQAPGKERELVAVISSSGGSTYYADSVKGRFTISRDNAKNTVYLQMNSLKPEDTAVYYCAAEWHDYKFDVTYDYWGQVTQVTVSS”: “low polyreactivity”.
